Measurements from US20210115133A1 (NGM BIOPHARMACEUTICALS, published 2021).
Positions count from the first letter of the chain named.

T1: human beta klotho expressed on cells (human, UniProt Q86Z14 1-1044)
T1 construct: in the reporter assays HEK293 cells were transfected with a GeneCopoeia human beta klotho plasmid together with human FGFR1c; in the adipocyte assay the beta klotho/FGFR1c is endogenous; also called HuKLB overexpressing cells; huKLB/R1c
T1 sequence: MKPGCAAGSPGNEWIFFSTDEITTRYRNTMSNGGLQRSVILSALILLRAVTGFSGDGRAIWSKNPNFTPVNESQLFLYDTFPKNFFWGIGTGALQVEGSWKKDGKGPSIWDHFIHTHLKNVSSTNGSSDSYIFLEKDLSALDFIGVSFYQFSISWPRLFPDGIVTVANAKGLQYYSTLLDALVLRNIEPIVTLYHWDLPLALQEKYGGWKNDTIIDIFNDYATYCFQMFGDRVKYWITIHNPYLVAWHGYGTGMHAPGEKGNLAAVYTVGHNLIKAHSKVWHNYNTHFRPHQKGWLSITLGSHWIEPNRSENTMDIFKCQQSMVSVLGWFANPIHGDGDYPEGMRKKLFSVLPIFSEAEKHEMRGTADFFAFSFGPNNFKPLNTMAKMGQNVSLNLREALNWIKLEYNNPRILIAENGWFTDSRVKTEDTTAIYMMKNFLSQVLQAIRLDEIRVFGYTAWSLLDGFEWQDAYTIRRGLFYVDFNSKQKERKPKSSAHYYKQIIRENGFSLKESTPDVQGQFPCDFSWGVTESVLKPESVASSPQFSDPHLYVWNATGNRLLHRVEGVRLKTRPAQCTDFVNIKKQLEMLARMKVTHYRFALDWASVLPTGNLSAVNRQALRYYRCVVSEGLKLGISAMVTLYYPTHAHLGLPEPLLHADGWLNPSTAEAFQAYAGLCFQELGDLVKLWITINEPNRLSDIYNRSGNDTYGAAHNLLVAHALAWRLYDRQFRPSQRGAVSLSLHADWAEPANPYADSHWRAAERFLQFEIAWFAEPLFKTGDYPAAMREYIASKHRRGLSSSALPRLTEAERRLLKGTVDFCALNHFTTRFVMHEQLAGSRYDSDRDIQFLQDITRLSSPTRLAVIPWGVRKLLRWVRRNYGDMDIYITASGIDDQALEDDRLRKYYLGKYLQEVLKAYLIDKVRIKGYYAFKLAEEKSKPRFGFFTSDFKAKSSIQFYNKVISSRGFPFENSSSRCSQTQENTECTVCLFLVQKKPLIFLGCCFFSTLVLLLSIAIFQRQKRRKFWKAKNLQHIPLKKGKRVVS

T2: cynomolgus monkey beta klotho expressed on cells (cynomolgus monkey (Macaca fascicularis), UniProt Q86Z14 1-1044 (human entry))
T2 chain: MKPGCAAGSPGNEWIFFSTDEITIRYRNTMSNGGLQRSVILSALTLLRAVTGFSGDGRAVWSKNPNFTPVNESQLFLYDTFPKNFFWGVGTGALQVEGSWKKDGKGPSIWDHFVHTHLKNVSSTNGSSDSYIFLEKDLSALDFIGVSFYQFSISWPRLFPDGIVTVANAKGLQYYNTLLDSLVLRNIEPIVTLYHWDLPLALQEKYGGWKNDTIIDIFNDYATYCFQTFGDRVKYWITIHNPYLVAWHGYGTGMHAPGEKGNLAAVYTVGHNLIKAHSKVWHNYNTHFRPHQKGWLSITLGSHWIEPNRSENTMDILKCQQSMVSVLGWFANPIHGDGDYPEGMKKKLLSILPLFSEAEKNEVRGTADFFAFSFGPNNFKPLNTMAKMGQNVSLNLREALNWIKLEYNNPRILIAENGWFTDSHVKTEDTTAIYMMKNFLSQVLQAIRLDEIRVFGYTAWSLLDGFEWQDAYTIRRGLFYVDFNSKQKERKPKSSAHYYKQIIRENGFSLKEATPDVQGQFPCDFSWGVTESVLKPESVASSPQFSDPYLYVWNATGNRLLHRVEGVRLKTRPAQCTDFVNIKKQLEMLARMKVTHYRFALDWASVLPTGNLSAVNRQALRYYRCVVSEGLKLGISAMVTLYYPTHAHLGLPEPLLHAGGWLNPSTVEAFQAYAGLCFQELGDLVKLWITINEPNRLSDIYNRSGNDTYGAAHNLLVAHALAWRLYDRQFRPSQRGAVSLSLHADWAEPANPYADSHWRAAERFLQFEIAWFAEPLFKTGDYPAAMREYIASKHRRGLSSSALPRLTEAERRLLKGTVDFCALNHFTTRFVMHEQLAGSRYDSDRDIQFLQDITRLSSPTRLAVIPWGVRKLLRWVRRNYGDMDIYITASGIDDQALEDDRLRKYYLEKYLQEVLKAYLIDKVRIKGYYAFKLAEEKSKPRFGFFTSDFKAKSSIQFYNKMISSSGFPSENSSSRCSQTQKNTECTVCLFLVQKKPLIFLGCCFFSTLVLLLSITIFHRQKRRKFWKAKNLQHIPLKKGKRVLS

T3: cynomolgus monkey beta klotho protein (cynomolgus monkey (Macaca fascicularis), UniProt Q86Z14 53-996 (human entry), limits assumed)
T3 construct: Soluble protein injected in Biacore assays; also called Cyno KLB; cyno beta klotho
T3 chain: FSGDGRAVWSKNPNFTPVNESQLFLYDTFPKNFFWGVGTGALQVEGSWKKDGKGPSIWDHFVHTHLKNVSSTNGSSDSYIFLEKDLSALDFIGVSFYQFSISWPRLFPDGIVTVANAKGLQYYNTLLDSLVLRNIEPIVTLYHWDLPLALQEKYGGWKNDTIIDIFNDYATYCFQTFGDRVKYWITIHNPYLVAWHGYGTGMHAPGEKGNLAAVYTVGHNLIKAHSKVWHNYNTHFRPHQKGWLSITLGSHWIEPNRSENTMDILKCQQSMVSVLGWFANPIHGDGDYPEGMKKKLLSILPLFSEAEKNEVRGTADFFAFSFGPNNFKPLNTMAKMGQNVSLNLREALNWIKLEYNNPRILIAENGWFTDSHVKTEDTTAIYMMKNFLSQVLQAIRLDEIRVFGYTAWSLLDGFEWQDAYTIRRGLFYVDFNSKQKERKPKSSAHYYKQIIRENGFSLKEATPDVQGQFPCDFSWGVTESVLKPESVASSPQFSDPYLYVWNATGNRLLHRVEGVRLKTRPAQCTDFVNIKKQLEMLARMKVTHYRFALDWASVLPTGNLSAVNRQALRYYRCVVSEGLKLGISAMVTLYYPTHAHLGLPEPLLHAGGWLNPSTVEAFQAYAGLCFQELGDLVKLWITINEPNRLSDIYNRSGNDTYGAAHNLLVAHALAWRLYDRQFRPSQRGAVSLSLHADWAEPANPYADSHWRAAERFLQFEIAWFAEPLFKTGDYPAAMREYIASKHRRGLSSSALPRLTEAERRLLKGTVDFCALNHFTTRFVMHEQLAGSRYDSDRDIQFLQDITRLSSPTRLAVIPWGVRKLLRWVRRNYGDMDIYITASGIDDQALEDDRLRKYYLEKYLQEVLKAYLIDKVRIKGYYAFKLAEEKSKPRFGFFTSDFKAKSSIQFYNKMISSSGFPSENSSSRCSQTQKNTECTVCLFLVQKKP

T4: human beta klotho protein (human, UniProt Q86Z14 53-997, limits assumed)
T4 construct: also called HuKLB; human beta klotho (R&D Systems)
T4 sequence: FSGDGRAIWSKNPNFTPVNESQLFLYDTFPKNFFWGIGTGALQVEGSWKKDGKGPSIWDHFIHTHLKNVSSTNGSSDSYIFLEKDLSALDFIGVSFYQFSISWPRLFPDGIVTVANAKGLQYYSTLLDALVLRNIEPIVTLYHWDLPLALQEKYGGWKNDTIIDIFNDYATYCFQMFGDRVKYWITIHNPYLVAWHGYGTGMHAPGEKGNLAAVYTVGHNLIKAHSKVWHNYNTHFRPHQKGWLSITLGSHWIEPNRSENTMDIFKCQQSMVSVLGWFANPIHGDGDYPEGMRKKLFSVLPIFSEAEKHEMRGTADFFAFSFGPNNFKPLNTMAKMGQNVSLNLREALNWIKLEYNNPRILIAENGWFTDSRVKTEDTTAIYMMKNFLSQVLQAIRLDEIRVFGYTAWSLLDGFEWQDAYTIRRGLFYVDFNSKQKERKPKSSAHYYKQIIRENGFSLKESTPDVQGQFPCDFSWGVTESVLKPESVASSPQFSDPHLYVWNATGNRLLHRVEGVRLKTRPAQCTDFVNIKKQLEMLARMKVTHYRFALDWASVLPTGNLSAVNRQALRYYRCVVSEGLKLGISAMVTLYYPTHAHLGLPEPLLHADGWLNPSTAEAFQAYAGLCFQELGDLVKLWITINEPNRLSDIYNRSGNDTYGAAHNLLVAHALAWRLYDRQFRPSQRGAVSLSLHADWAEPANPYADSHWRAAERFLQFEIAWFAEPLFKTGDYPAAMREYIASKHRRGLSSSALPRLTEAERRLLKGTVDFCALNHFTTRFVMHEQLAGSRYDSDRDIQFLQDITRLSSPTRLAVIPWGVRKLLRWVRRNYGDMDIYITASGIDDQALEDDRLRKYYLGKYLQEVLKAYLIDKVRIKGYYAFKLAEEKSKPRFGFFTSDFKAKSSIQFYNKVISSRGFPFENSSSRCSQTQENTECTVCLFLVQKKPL

B1: anti-beta klotho monoclonal antibody 3I13 (antibody, V domains shown)
VH: QVQLQQSGPELVKPGASVKISCKTSGYTFTEYTMHWVKQSHGKSLEWIGSFNPDSGGTSYNQKFKGKATLTVDKSSSTAYMELRSLTSEDSAVYYCARDDGYSTRYWYFDVWGAGTTVTVSS
VL: DIQMTQSPASLSASVGETVTITCGASENIYGALNWFQRKQGKSPQLLIYGATILADGMSSRFSGSGSGRQYSLKISSLHPDDVATYYCQNVLSTPYTFGGGTKLEIK
notes: Murine monoclonal antibody from a hybridoma (captured by anti-mouse Fc); also called 3I13 - Alexa488
B2: anti-beta klotho monoclonal antibody 4A2 (antibody, V domains shown)
VH: B1 VH with Q1E, A16T, H35Y, S50G, D54N, S55Y, T58A, G66D
VL: B1 VL with F36Y, I53N
notes: Murine monoclonal antibody from a hybridoma
B3: anti-beta klotho monoclonal antibody 2J21 (antibody, V domains shown)
VH: B1 VH with Q1E, T33I, S50N, F51I, N52D, D54N, S55T, S77I, Y80F
VL: B1 VL with A9P, F36Y, I53N
notes: as for B2

What was measured:
[1] = target: T1, human beta klotho expressed on cells; experiment: FACS competition on HuKLB overexpressing cells; cells pre-incubated with the row's antibody, competitor: labelled 3I13-Alexa488
Experimental: (§1) For example, for competition binding assays by FACS analysis, antibody standards were prepared that were conjugated to a fluorochrome using either A488 or A647 antibody labeling kit (Invitrogen) following manufacturer's instructions. A dose titration of the conjugated antibody standard was evaluated using HuKLB overexpressing cells. The plateau of the maximal signal of antibody binding is EC=100 and the background signal is EC=0. Competition by FACS against the fluorochrome labeled antibody was performed by pre-incubating HuKLB overexpressing cells with hybridoma supernatants for 15 minutes at room temperature. Without washing, an EC=10 concentration of A488 or A647 labelled antibody standard was added. EC=10 for an individual antibody was determined by 10% of signal using the maximum signal as (100%) and background signal as (0%). After 30 minutes at 4° C., cells are washed and analyzed by FACS. […] A partial competing antibody is one sample that show signal between labelled antibody alone and background. Antibodies that show complete competition against the same standard antibody are considered to be in the same bin.
(§2) In exemplary competition binding experiments by FACS, antibody 3I13 or 9E19 was used as an antibody standard fora positive control (competing antibody) or a negative control (labeled antibody alone), respectively. Representative results are shown in Table 5 below reported as mean fluorescence intensity (MFI).

[2] = target: T1, human beta klotho expressed on cells; experiment: FACS competition on HuKLB overexpressing cells; cells pre-incubated with the row's antibody, competitor: labelled 9E19-Alexa647
Experimental: as §1, §2

[3] = target: T2, cynomolgus monkey beta klotho expressed …; experiment: cell-based or functional assay
[4] = target: T1, human beta klotho expressed on cells; experiment: cell-based or functional assay
[5] = target: T3, cynomolgus monkey beta klotho protein; experiment: Biacore SPR; antibody captured on anti-mouse Fc CM5 chip, beta klotho 1.56-25 nM injected, 25 C
Experimental: (§3) Binding affinity measurements were also made in additional Biacore based assays. For example, equilibrium dissociation constant (KD) measurements were carried out with purified antibodies to evaluate their binding to human beta klotho and cyno beta klotho. As mentioned above, anti-mouse Fc antibody (Sigma-Aldrich, St. Louis, Mo.) was immobilized on all four flow cells of a CM5 chip using amine coupling reagents (GE Healthcare LifeSciences, Piscataway, N.J.). Purified antibodies were captured (˜100 RUs) on flow cells 2, 3 and 4 using flow cell 1 as a reference. This was followed by injection of different concentrations of human or cyno beta klotho (1.56 nM to 25 nM, two-fold dilutions in PBS-P buffer) at a flow rate of 70 μL/min and the binding kinetics were evaluated at 25° C.

[6] = target: T4, human beta klotho protein; experiment: as above
Experimental: as §3

Row | Binder | Mean Florescence Intensity (MFI) [1] | Mean Florescence Intensity (MFI) [2] | HEK293 cynoKLB/R1c reporter assay EC50 [3] | HEK293 huKLB/R1c reporter assay EC50 (Experiment - A) [4] | HEK293 huKLB/R1c reporter assay EC50 (Experiment - B) [4] | Kd [5] | Kd [6]
1 | B1 | 8.1 MFI | 27.8 MFI | 0.438 nM | 0.333 nM | 1.99 nM | 1.9 nM | 0.4 nM
2 | B2 | 9.1 MFI | 28.5 MFI |  |  |  | 3.2 nM | 0.92 nM
3 | B3 | 10.2 MFI | 25.7 MFI |  |  |  | 12.2 nM | 4.8 nM
